Source: paper PMC11681868 (2024)
Where no end group is shown, it is not given here. [ ]: non-standard residue; d: D form. pS = N[C@@H](COP(=O)(O)O)C(=O)O

Assays:
[1] = target: G11; assay: ITC
[2] = target: A3; assay: ITC

Kd [1]: 18.1 nM
Kd [2]: 31.8 nM
Binder: RPHFPQF[pS]YSAS [phosphorylated Akt peptide]
